# In patent US20180362628A1 (KYMAB, published 2018):
# Substitutions are numbered along the chain they refer to.
# B1: CL-141799 (antibody, V domains shown)
# VH: QVQLVQSGAEVKKPGASVKVSCKASGFTFTDYAMHWVRQAPGQRLEWMGWINAGNGYTKYSQKFQDRLTITRDTFASTVYMELSSLRSEDTTVYYCARDGFCPSNTCSGYYGMDVWGQGTTVTVSS
# VL: QSALTQPASVSGSPGQSITISCTGTSSDVGAYKYVSWYQQHPGKAPKLMIYDVNTRPSGVSTRFSASKSGNTASLTVSGLQAEDEAVYYCSSYAGSSTWVFGGGTKLTVL
# notes: human IgG1, HEK (Expi293F) culture supernatant
# B2: CL-141766 (antibody, V domains shown)
# VH: QVQLVQSGAEVKKPGASVKVSCKASGYTFTSYAMHWVRQAPGQRLEWMGWINAGNGNTKYSQKFQGGVTITRDTSASTAYMELSSLRSEDTAVYYCARDNYYDSGSYYDYYYYGMDVWGQGTTVTVSS
# VL: QSALTQPASVSGSPGQSITFSCTGTSSDVGSYNHVSWYQQHPGKAPKLMIYDVSKRPSGVSNRFSGSKSGNTASLTISGLQAEDEADYYCCSYAGSSTWVFGGGTKLTVL
# notes: as for B1
# B3: Antibody 666 Fab (Fab, V domains shown)
# VH: B2 VH with S31N, K63N, G67R, N100E, D103A, S127T
# VL: B2 VL with F20I, S31V, H34Y, Y38F, D52N, K106N
# notes: recombinant human Fab from CHO-3E7 cells, purified on nickel columns
# B4: CL-141802 (antibody, V domains shown)
# VH: QVQLVQSGTEVKKPGASVKVSCKASGFTFSSYAMHWVRQAPGQRLEWMGWINAGNGNTKYSQKFQGRVTITRDTSASTAYMELSSLRSEDTAVYYCARDGYCSSTSCYGYYGMDVWGQGTTVTVSS
# VL: B2 VL with F20I, S31A, H34Y, Y51S, G70D, I77V, D87V
# notes: as for B1
# B5: CL-141783 (antibody, V domains shown)
# VH: QVQLVQSGAEVKKPGASVKLSCKASGYTFTNYAMHWVRQAPGQSLEWMGWINAGNGYTKYSQKFQGRVTITRDTSANTAYMDLSSLRSEDTAVYYCARDQYYDILKGYYNVDYYYGMDVWGQGTTVAVSS
# VL: B2 VL with F20I, N62D, A94V
# notes: as for B1
# B6: CL-141791 (antibody, V domains shown)
# VH: QVQLVQSGAEVKKPGASVKVSCRASGYTFTNYAMHWVRQAPGQRLEWMGWINAGNGYTKYSQKFQDRVTITRDTSATTAHMELSSLRSEDTAMYYCARDSFYDILTGPVYHYYGMDVWGQGTTVTVSS
# VL: B2 VL with A8D, F20I, S27N, S31V, A94V, T98A, K106N
# notes: as for B1
# B7: Antibody 667 Fab (Fab, V domains shown)
# VH: B6 VH with H80Y, T106S
# VL: B2 VL with A8D, F20I, S27N, S31I, S54N, V60I, N71D, T98A
# notes: as for B3
# B8: CL-141786 (antibody, V domains shown)
# VH: QVQLLQSGAEVKKPGASVKVSCKASGYTFTNYAMHWLRQAPGQRLEWMGWINAGNGYTKYSQKFQGRVTITRDTSATTAYMDLSSLRSEDTAVYYCARDNYYDSNVYNSYYFYGMDVWGQGTTVTVSS
# VL: B2 VL with A3V, S13P, F20I, S31N, G43D, S54N, V60I
# notes: as for B1
# B9: CL-141792 (antibody, V domains shown)
# VH: QVQLVQSGAEVKKPGASVKVSCKASGYTFTSYAMHWVRQAPGQRLEWMGWINAGNGYTKYSQNFQGRVTITRDTSASTAYMELSSLRSEDTAVYYCARDNYFDSSVYDSSYYFYYGMDVWGQGTTVTVSS
# VL: B2 VL with F20I
# notes: as for B1
# B10: CL-141772 (antibody, V domains shown)
# VH: QVQLVQSGAEVKKPGASVKVSCKASGFIFINYAMQWVRQAPGQRLEWMGWINAGNGYTKYSQKFQGRVTITRDISANTVYMELSSLRSEDTAVYYCARDGFCSTTTCSDHYGMDVWGQGTTVTVSS
# VL: B2 VL with F20I, S31G, H34Y, N62D, A82T
# notes: as for B1
# B11: CL-141779 (antibody, V domains shown)
# VH: B2 VH with G67R, N100Q, S104I, G105L, S106T, Y107P, D109Y
# VL: B2 VL with F20I, S31G, H34Y, D52V
# notes: as for B1
# B12: CL-141790 (antibody, V domains shown)
# VH: QVQLVQSGAEVKRPGASVKISCKASGYTFTNYAIHWVRQAPGQRLEWMGWINAGNGYTKYSQKFQGRVTITRDTSATSAYLELYSLISEDTAVYYCVRDEYYDSGSSNYYYYGMDVWGQGTTVTVSS
# VL: B2 VL with F20I, S31N, G43D
# notes: as for B1
# B13: Antibody 669 Fab (Fab, V domains shown)
# VH: QVQLVQSGAEVKKPGASVRVSCKASGFTFTSYAMHWVRQAPGQRLEWMGWINAGNGHTKYSQKFQDRVAITRDTSATTVYMDLSSLRSEDTAVYYCTRDGFCTSTTCSDHYGMDVWGQGTTVTVSS
# VL: B2 VL with F20I, H34Y, L48F
# notes: as for B3
# B14: CL-141805 (antibody, V domains shown)
# VH: B2 VH with S31N, K63N, G67R, N100E, D103A, S127T
# VL: B2 VL with F20I, S31V, H34Y, Y38F, D52N, K106N
# notes: as for B1
# B15: CL-141785 (antibody, V domains shown)
# VH: B13 VH with T30I, R44G, N55D, T97S, S104T
# VL: B2 VL with F20I, H34Y, L48F, N62D
# notes: as for B1
# B16: CL-141784 (antibody, V domains shown)
# VH: QVQLVQSGAEVKNPGASLKVSCKASGYTFTNYAMHWVRQAPGQRLEWMGWINAGNGYTKYSQTFQGRVTITRDTYASTAYMELSSLRSEDTAVYYCVRDEYYESGSSNYYYYGMDVWGQGTTVTVSS
# VL: B2 VL with F20I, K55T, L107M
# notes: as for B1
# B17: CL-141806 (antibody, V domains shown)
# VH: QVQLVQSGAEVKKPGASVKVSCKASGYTFTNYAIHWVRQAPGQRLEWMGWINAGNGNTKYSQKFQGRVTITRDTSASTAYMELSSLRSEDTAVYYCARDNFYGSGTYFSYFFYHMDVWGQGTTVTVSS
# VL: B2 VL with F20I, V60M, N62D
# notes: as for B1
# B18: Antibody 668 Fab (Fab, V domains shown)
# VH: B1 VH
# VL: B1 VL with A31S, K33N, T62I
# notes: as for B3
# B19: CL-141776 (antibody, V domains shown)
# VH: B13 VH with K13N, R19K, S31N, V79A, D82E, T97S, T103S, S104T
# VL: B2 VL with F20I, S31G, H34Y, L48F
# notes: as for B1
# B20: CL-141789 (antibody, V domains shown)
# VH: B13 VH with A24T, M34I, H35Q, R44G, N55D, A69V, S104T
# VL: B2 VL with F20I, H34Y, A45V, L48F, Y51S, V60I, N62D, S96G
# notes: as for B1
# B21: CL-141781 (antibody, V domains shown)
# VH: B6 VH with T30S, H80Y, A97S
# VL: B2 VL with A8D, F20I, S27N, S31V, A94V, S96N, T98A
# notes: as for B1
# B22: CL-141769 (antibody, V domains shown)
# VH: B6 VH with V68F, H80Y, M93V
# VL: B2 VL with A8D, F20I, S27N, S31V, A86S
# notes: as for B1
# Legend:
# [1] = target: Recombinant CSP (Wellcome Trust Sanger Institute, FIG. 22), CSP ectodomain with BirA biotinylation tag, biolinker and histidine tag (Plasmodium falciparum strain 3D7) (UniProt Q7K740); test: SPR, 2A10 on anti-mouse capture surface, CSP as analyte, 25 C, 1:1 fit
# [2] = target: T1, full CSP protein (analyte of Example 12) (Plasmodium falciparum (isolate 3D7), UniProt Q7K740 19-374); test: SPR, IgG1 from supernatant on anti-human IgG surface, CSP as analyte, 25 C, 1:1 fit
# T1 construct: not shown: C-terminal tags
# [3] = target: T2, Recombinant CSP (Wellcome Trust Sanger Institute, FIG. 22), CSP ectodomain with BirA biotinylation tag, … (Plasmodium falciparum strain 3D7, UniProt Q7K740 19-376, biotinylated at the BirA substrate peptide); test: SPR (ProteOn), biotinylated CSP on NLC chip, Fab as analyte, 25 C, 1:1 fit
# T2 construct: extracellular domain; Expressed in HEK293, 45 kDa; order of the tags is that of the legend, not confirmed; also called biotinylated recombinant CSP
Molecule,kon [2] [M⁻¹ s⁻¹],further results
Mouse monoclonal antibody 2A10 (IgG2aK),,Kd [1]: 0.04 nM; koff [1]: 9.41e-05 s⁻¹; kon [1]: 2.23e+06 M⁻¹ s⁻¹
B1,486000,
B2,528000,
B3,,Kd [3]: 52 nM; koff [3]: 0.00249 s⁻¹; kon [3]: 48000 M⁻¹ s⁻¹
B4,313000,
B5,128000,
B6,253000,
B7,,Kd [3]: 31.6 nM; koff [3]: 0.00079 s⁻¹; kon [3]: 25000 M⁻¹ s⁻¹
B8,457000,
B9,51300,
B10,338000,
B11,298000,
B12,428000,
B13,,Kd [3]: 126 nM; koff [3]: 0.00211 s⁻¹; kon [3]: 16800 M⁻¹ s⁻¹
B14,1.19e+06,
B15,573000,
B16,541000,
B17,284000,
B18,,Kd [3]: 12.5 nM; koff [3]: 0.000473 s⁻¹; kon [3]: 37900 M⁻¹ s⁻¹
B19,143000,
B20,293000,
B21,221000,
B22,156000,
